From patent publication US20220340642A1 (Kyowa Kirin, published 2022) come the findings set out here.

Residue numbers refer to the chain shown, from its start.

For test [1], the target named is T1, DcR3 FL-Fc (R&D Systems, Inc.) (human, UniProt O95407 30-300).
T1 construct: Bought product made in insect cells; also called DcR3-Fc (R&D Systems, Inc.); DcR3 FL-Fc (IgG1)
T1 sequence: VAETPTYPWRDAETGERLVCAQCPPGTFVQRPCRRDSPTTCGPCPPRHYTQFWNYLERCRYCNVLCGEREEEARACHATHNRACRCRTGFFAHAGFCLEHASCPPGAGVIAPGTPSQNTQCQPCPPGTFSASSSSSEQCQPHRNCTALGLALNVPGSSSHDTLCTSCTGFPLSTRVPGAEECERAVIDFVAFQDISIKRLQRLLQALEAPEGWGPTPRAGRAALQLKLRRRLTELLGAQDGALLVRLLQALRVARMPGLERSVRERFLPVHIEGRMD
The test can be described thus: SPR, binder captured. As for the experimental part:
Regarding each of the various wild-type DcR3 controls and the DcR3 variants shown in Table 9, the binding activities to DcR3 ligands (LIGHT, TL1A, FasL) were analyzed by the SPR method using BIAcore T-100 (GE Healthcare). As the buffer, HBS-EP+Buffer was used.
After 10,000 RU of anti-human antibodies were immobilized to Series S Sensor Chip CM5 using Human Antibody Capture Kit (GE Healthcare), various wild-type DcR3 controls and DcR3 variants were injected at the flow rate of 10 μL/min for 30 seconds and captured. Meanwhile, the buffer containing no protein was injected into reference flow cells. Thereafter, as an analyte, DcR3 ligands of a human, a cynomolgus monkey or a mouse diluted to 0.08 to 80 nmol/L were injected at 10 μL/min for 2 minutes to monitor the binding, and subsequently the buffer was injected for 3 minutes to monitor dissociation. Then, 3 mol/L magnesium chloride was injected at 20 μL/min for 1 minute to perform a regeneration reaction. […] As a result of measurement, except for mouse LIGHT for which a trimer could not be produced, it was confirmed that various wild-type DcR3 controls and DcR3 variants bind to each DcR3 ligand of a human, a cynomolgus monkey or a mouse.
In general terms: SPR reads the build-up and loss of mass on a sensor chip optically.

Test [2] concerns the target T2, soluble recombinant of human TL1A (His6, GS linker, Leu72-Leu251) (UniProt O95150 72-251).
T2 chain: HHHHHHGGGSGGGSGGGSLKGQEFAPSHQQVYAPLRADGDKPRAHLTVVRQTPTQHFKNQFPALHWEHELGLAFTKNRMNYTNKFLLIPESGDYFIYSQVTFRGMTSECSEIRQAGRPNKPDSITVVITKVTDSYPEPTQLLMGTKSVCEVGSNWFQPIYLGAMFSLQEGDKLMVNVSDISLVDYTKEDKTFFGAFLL
The experiment in a line: BIAcore SPR. The essentials: (§1)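 On a BIAcore T-100 or T-200 instrument (GE Healthcare), with HBS-EP+ Buffer, surface plasmon resonance measured binding of each test molecule to soluble recombinant His-tagged LIGHT, TL1A or FasL. These proteins were of human or cynomolgus monkey origin. The dissociation constant (Kd, nM) was derived from the resulting data.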

Test [3] has as its target T3, soluble recombinant of human LIGHT (His10, GS linker, Asp74-Val240).
T3 chain: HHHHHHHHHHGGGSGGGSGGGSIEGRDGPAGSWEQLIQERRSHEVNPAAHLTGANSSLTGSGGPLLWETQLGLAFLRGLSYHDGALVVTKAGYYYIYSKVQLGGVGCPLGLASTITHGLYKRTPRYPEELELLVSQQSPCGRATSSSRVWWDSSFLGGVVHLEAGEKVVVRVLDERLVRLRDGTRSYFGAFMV
The experiment in a line: BIAcore SPR. The procedure, abridged: as §1

Test [4] deals with T4, soluble recombinant of human FasL (His6, Pro134-Leu281) (UniProt P48023 134-281).
T4 chain: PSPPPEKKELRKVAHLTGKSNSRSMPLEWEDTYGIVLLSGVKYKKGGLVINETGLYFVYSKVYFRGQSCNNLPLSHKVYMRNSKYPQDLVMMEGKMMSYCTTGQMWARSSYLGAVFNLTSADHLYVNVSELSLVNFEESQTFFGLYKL
The test can be described thus: BIAcore SPR. The procedure, abridged: as §1

B1: soluble recombinant of human TL1A (His6, GS linker, Leu72-Leu251) (ligand)
chain: T2 chain
notes: also called His6-TL1A; hTL1A
For the molecule B1, in test [1], the Kd – broadly, the free concentration of one partner at which half of the binding sites on the other are occupied at equilibrium, for simple one-to-one binding – was 0.89 nM; the koff (as a rule, the rate constant with which the complex falls apart) is 0.00035 s⁻¹; the kon – broadly, a measure of how fast the partners come together – came to 390000 M⁻¹ s⁻¹.

B2: soluble recombinant of cynomolgus monkey TL1A (His6, GS linker, Leu72-Leu251) (ligand)
chain: T2 chain with F57L, I96V
notes: also called His6-cynoTL1A
In test [1], B2 gave a Kd of 0.92 nM, a koff of 0.00035 s⁻¹ and a kon of 380000 M⁻¹ s⁻¹.

B3: soluble recombinant of mouse FasL (His6, Pro132-Leu279) (ligand)
chain: HHHHHHPSTPSEKKEPRSVAHLTGNPHSRSIPLEWEDTYGTALISGVKYKKGGLVINETGLYFVYSKVYFRGQSCNNQPLNHKVYMRNSKYPEDLVLMEEKRLNYCTTGQIWAHSSYLGAVFNLTSADHLYVNISQLSLINFEESKTFFGLYKL
Turning to B3, in test [1], the Kd came to 65 nM, the koff came out at 0.0097 s⁻¹ and the kon was 150000 M⁻¹ s⁻¹.

B4: DcR3 FL-Fc (R&D Systems, Inc.) (Fc fusion)
chain: T1 sequence
For the molecule B4, the Kd in test [2] is 0.21 nM; in test [3] it was 0.21 nM; in test [4], 0.93 nM.

B5: soluble recombinant of human FasL (His6, Pro134-Leu281) (ligand)
chain: T4 chain
For the molecule B5, in test [1], the Kd was found to be 1.3 nM, the koff is 0.0004 s⁻¹ and the kon was 310000 M⁻¹ s⁻¹.

B6: soluble recombinant of cynomolgus monkey FasL (His6, Pro133-Leu280) (ligand)
chain: T4 chain with L10Q, S20P, N70T, R108H
notes: also called His6-cynoFasL
On to B6, for which, in test [1], binding was put at a Kd of 1.1 nM, the koff stood at 0.00033 s⁻¹ and the kon turned out to be 300000 M⁻¹ s⁻¹.

B7: soluble recombinant of human LIGHT (His10, GS linker, Asp74-Val240) (ligand)
chain: T3 chain
Take B7: in test [1], the Kd is 1.1 nM, the koff came to 0.0004 s⁻¹ and the kon was found to be 380000 M⁻¹ s⁻¹.

B8: soluble recombinant of cynomolgus monkey LIGHT (His10, GS linker, Asp74-Val240) (ligand)
chain: T3 chain with P29H, A30G, E44Q, V45N, S80D, V88A, T89N, S146N, A164V, K167E
In test [1], B8 registered a Kd of 1.2 nM, a koff of 0.00038 s⁻¹ and a kon of 310000 M⁻¹ s⁻¹.

B9: soluble recombinant of mouse LIGHT (His10, GS linker, Asp72-Val239) (ligand)
chain: HHHHHHHHHHGGGSGGGSGGGSIEGRDGGKGSWEKLIQDQRSHQANPAAHLTGANASLIGIGGPLLWETRLGLAFLRGLTYHDGALVTMEPGYYYVYSKVQLSGVGCPQGLANGLPITHGLYKRTSRYPKELELLVSRRSPCGRANSSRVWWDSSFLGGVVHLEAGEEVVVRVPGNRLVRPRDGTRSYFGAFMV
For the molecule B9, in test [1], the binding result is “no binding (tested: 0.08 to 80 nmol/L)”.

B10: soluble recombinant of mouse TL1A (His6, GS linker, Ile94-Leu270) (ligand)
chain: HHHHHHGGGSGGGSGGGSITEERSEPSPQQVYSPPRGKPRAHLTIKKQTPAPHLKNQLSALHWEHDLGMAFTKNGMKYINKSLVIPESGDYFIYSQITFRGTTSVCGDISRGRRPNKPDSITMVITKVADSYPEPARLLTGSKSVCEISNNWFQSLYLGATFSLEEGDRLMVNVSDISLVDYTKEDKTFFGAFLL
In test [1], B10 returned a Kd of 0.58 nM, a koff of 0.00049 s⁻¹ and a kon of 840000 M⁻¹ s⁻¹.
